Test results: PMC11320999, “APH(3’)-Ie, an aminoglycoside-modifying enzyme discovered in a rabbit-derived Citrobacter gillenii isolate” (Frontiers in Cellular and Infection Microbiology, 2024)

Columns and labels:
Assay in all cases: purified protein
Type in all cases: biochemical, Citrobacter gillenii
Settings in all cases: 1 mM ATP, 1 mM MgCl2, 2 mM KCl, 100 mM HEPES pH 7.0, 25 °C
[1] = test system: NC[C@H]1O[C@H](O[C@H]2[C@H](O[C@@H]3O[C@H](CO)[C@@H](O)[C@H]3O)[C@@H](O)[C@H](N)C[C@@H]2N)[C@H](N)[C@@H](O)[C@@H]1O
[2] = test system: NC[C@H]1O[C@H](O[C@H]2[C@H](O)[C@@H](O[C@H]3O[C@H](CO)[C@@H](O)[C@H](N)[C@H]3O)[C@H](N)C[C@@H]2N)[C@H](O)[C@@H](O)[C@@H]1O
[3] = test system: NC[C@@H]1O[C@H](O[C@H]2[C@@H](O)[C@H](O[C@@H]3[C@@H](O)[C@H](N)C[C@H](N)[C@H]3O[C@H]3O[C@H](CO)[C@@H](O)[C@H](O)[C@H]3N)O[C@@H]2CO)[C@H](N)[C@@H](O)[C@@H]1O

APH(3’)-Ie (Citrobacter gillenii)
Km [1]: 4.22 ± 0.88 µM | kcat [1]: 1.31 ± 0.09 s⁻¹ | kcat/Km [1]: 323000 ± 81000 M⁻¹ s⁻¹ | Km [2]: 20.99 ± 1.84 µM | kcat [2]: 1.06 ± 0.05 s⁻¹ | kcat/Km [2]: 50800 ± 4400 M⁻¹ s⁻¹ | Km [3]: 7.74 ± 1.44 µM | kcat [3]: 0.86 ± 0.01 s⁻¹ | kcat/Km [3]: 114000 ± 28000 M⁻¹ s⁻¹
